Laboratory results taken from article PMC9054839.
Blank lines part the entries; values can stand above or below the substance they belong to.

How the values were obtained:
paxillin 1–160 (human) = paxillin 1–160 (human) (UniProt P49023); assay: SPR; paxillin 1–160 amine-coupled to CM5, talin subdomains (0–12 μM) flowed over; 50 mM sodium phosphate pH 6.8, 150 mM NaCl, 25 °C; talin-R1–R4 fitted by a two-state model
[1] = biological target: GST-integrin beta3 cytoplasmic tail (UniProt P05106); assay: SPR; GST-integrin beta3CT amine-coupled to CM5, talinH or tlnM3 (0–125 nM) flowed over; 50 mM sodium phosphate pH 6.8, 150 mM NaCl, 0.05% Tween 20, 0.03% BSA, 25 °C
Chain of GST-integrin beta3 cytoplasmic tail (P05106 742-788): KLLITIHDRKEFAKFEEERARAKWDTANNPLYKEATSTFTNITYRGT

[2] = biological target: kindlin-2 (endogenous, fibroblasts) [mouse (endogenous in talin^1/2dko fibroblasts)]; assay: anti-GFP immunoprecipitation, western blot quantification; conditions: talin1/2dKO fibroblasts, N = 3; parent: 1; read off a plot
[3] = biological target: constitutively activated full-length talin mutant tlnM3 (M319A, T1767L, E1770K) (mouse) (UniProt P26039); assay: SPR; tlnM3 amine-coupled to CM5, tlnM3 flowed over; 150 mM salt, pH 6.8, 25 °C; intermolecular tlnM3/tlnM3 interaction (dimerization)

Chain of paxillin 1–160 (human) (P49023 1-160): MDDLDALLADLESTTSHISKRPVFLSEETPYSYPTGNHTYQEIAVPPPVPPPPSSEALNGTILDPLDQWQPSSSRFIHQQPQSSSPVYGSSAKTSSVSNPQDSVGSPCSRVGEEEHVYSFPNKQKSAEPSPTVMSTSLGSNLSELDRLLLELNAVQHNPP

- Kd (paxillin 1–160 (human)): 12.7 µM
Substance: talin-R11 (domain or fragment)

- Kd [1]: 0.036 µM
Substance: talin deletion mutant without C-terminal dimerization domain (from UniProt P26039 1-2482) (domain or fragment)

- Kd (paxillin 1–160 (human)): 0.153 µM
- stoichiometry N (paxillin 1–160 (human)): 1
Substance: talin-R1–R4 (domain or fragment)

The remaining lines, values behind:

Substance: talin N-terminal head domain (talin-H) (domain or fragment)
- Kd [1]: 0.0297 µM

Substance: C-terminally ypet-tagged full-length talin WT mutant A680E; K687E [mouse] / kindlin-2 (endogenous, fibroblasts) [mouse (endogenous in talin^1/2dko fibroblasts)] chain 1 A680E, chain 1 K687E
- ratio to parent [2]: 0.49

Substance: C-terminally ypet-tagged full-length talin WT mutant T2126E; K2133E [mouse] / kindlin-2 (endogenous, fibroblasts) [mouse (endogenous in talin^1/2dko fibroblasts)] chain 1 T2126E, chain 1 K2133E
- ratio to parent [2]: 0.81

Substance: C-terminally ypet-tagged full-length talin WT mutant A680E; K687E; T2126E; K2133E [mouse] / kindlin-2 (endogenous, fibroblasts) [mouse (endogenous in talin^1/2dko fibroblasts)] chain 1 A680E, chain 1 K687E, chain 1 T2126E, chain 1 K2133E
- ratio to parent [2]: 0.31

Substance: constitutively activated full-length talin mutant tlnM3 (M319A, T1767L, E1770K), P26039 1-2541
- Kd [3]: 1.82 µM
